Experimental data: the nanobody polyreactivity screen of Harvey et al. (2022)

Assay: yeast display, Sf9 membrane polyspecificity reagent, FACS + sequencing; frameworks hold sequencing errors
In short: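 Polyreactivity labels are assigned by the sorting gate from which each nanobody was recovered. The gates were low and high (top ~1%), set on anti-HA fluorescence for expression and streptavidin fluorescence for reagent binding. Before sorting, galactose-induced (36–48 hours) yeast display cells were stained for 1 hour at 4 °C with 10% biotinylated, detergent-solubilized Sf9 membrane reagent.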

Row | Sequence | polyreactivity (PSR sort gate)
1 | HVQLVESGVGLVQAGGSLRLRCAASGRTLSVYAMGWYRQAPGKERELVAAITIRGGRTYYADSVKGRFTISRDNAKNTVYLQMNSLKPEDTAVYYCAAPPYVKMDYWGQGTQVTVSS | high polyreactivity
2 | QVQLVESGGGLVQAGGSLRLSCAASGSIFNYYAMGWYRQAPGKERELVAAITSSDGRTFYADSVKGRFTISRDNAKNKVYLQMNSLKPEDTAFYYCAAEWTSRYSTYEYWGQGTQVTVSS | low polyreactivity
3 | QVQLVESGGGLVQAGGSLRLSCAASGSTFYVNAMGWYRQAPGKERYADSVKGRFTISRDNAKNTVYLQMNSLKPEDTAVYYCAAKVPEPPSLDESDYWGQGTQVTVSS | low polyreactivity
4 | QVQLVESGGGLDQAGGSLRLSCAASGSIFPLYAKGWYRQAPGKERELVADITVSGGSTYYADSVKGRFTISRDYAKNTVYLQMNSLKPEDTAVYYCAKDNGPWFAYDYWGQGTHVTVSS | low polyreactivity
5 | QVQLVESGGGLVQAGGSLRLSCAASGSIIKAYAMGWYREAAGKERELVATITRSGVSTYYADSVNGRFTISRDNAKNTVYLQMKSLKPEDTAVYYCNRTGYVRFYITQQRGYFRYDYWGQGTQVTVSS | low polyreactivity
6 | QVQLVESGGGLVQAGGSLRLSCAASGSIFYRYAMGWYRQAPGKERELVADISSGGGTSYADSVKGRFTISRDNAKNTVYLQMNSLKPEDTAVYYCAAELYYWTYVRFDYWGQGTQVTVSS | low polyreactivity
7 | QVQLIESGGGLVQAGGSLRLSCAASGRTFGRYTMGWYRQAPGKERELVADISGTGGRTYYSDSVKGRFTISRDNAKNTVYLQMNSLKPEDTAVYYCNAVLHRRFDYWGQGTQVTVSS | high polyreactivity
8 | QVQLVESGGGLVQEGGSLRLSCAASGFTFVSNAMGWYRQAPGKERELVAAITYSGTRTYYADSVKGRFTISRDNAKTTVYLQMNSLKPEDTAVYYCAARRGYASAYYYWGQGTQVTVSS | high polyreactivity
9 | QVQLVESGGGLVQAGGSLRLSCAASGRISARYVMGWYRQAPGKERELVAAISWSGDRTYYADSVKGRFTISRDNAKNTVYLQMNSLKPEDTAVYYCANGFYSRLAYGYGYWGQGTQVTVSS | high polyreactivity
10 | QVQLVESGGGLVQAGGSLRLSCAASGFTFSYYAKGWYRQAPGKERELVAVISDRGGITYYADSVKGRFTISRDNAKNTVYLQMNSLKPEDTAVYYCAAQNPRYNDRYYYWGQGTQVTVSS | low polyreactivity
11 | QVQLGESGGGLVQAGGSLRLSCAASGRIFSAYAMGWSRQEPGKERELVAAITRSGGSTYYADSVKGRFTISRDNAKNTVYLQMNSLKPEDTAVYYCAAGYFVSDAWSWYHWVEHGYWGQGTQVTVSS | high polyreactivity
12 | QVQLVESGGGLVQAGGSLRLSCAASGSIFISYAMGWYRQAPGKERELVAAISSGGSTNYADSVKGRFTISRDNAKNTVYLQMNSLKPEDTAVYYCAADGWLLSFTGDGWWFDYWGQGTQVTVSS | low polyreactivity
13 | QVQLVESGGALVQAGGSLRLSCAASGYIFPGNAMGWYRQAPGKEREVVAGITSSGTSTYYADSVKGRFTISRDNAKNTVYLQMNSLKQEDTAVYYCAADALWGTGSGFDYWGQGTQVTVSS | low polyreactivity
14 | QVQLVESGGGLVQAGGSLRLSCAAPGSTFQFNVMGWYRQAPGKERELVAAITSGASTYYADSVKGRFTISRDNAKNTVYLQMYSLEPEDTAVYYCAVDYSFLYDYVQRYYYWGQGTQVTVSS | high polyreactivity
15 | QVQLVESGGGLVQAGGSLRLSCAASGSIYRYAMGWYRQAPGKERELVAAINFNGGRTYYADSVKGRFTISRDNAKNTVYLQMNSLKPEDTAVYYCAAVRSSNQGGFDYWGHGTQVTVSS | high polyreactivity
16 | QVQLVESGGGLVQAGVSLRLSCAASGSILRQYAMGWYRQAPGKEWELVAAITGSGGSTSYADSVKGRFTISRDNAKNTVYLQMNSLKPEDTAVYYCNAYLSSRTRSTYGSLRMDYWGPGTQVTVSS | high polyreactivity
17 | QVQLVESGGGLVQAGGSLRLSCAASGSTFGVYAMGWYRQAPGKERELVAAISESGGNTYYADSVKGRFTISRDNAKNTVYLQLNSLKPEDPAVYYCNTDVVVVHYIQAYYWGQGTQVTVSS | low polyreactivity
18 | QVQLVESGRGLVQAGGSLRLSCAASGRTFYYYAMGWYRQAPGKERELVAAISRSGTRTYYADSVKGRFTISRDNAKNTVYLQMNSLKPEDTAVYYCAAVGAAGQDNYWGQGTQVTVSS | high polyreactivity
19 | QLQLVESGRGLVQAGGSLRLSCAASGRTFYFYGMGWYRQAPGKERELVASITRGTSTTYADSVKGRFTISRDNAKNTVYFQMNSLKPEDTAVYYCAARAWNYLTSYYIGGYEYWGQGTQVTVSS | low polyreactivity
20 | QVQLVESGGGLVQAGGSLRLSCAASGIIFGRYTMGWYRQAPGKERELVAAITSSGITYYADSVKGRFTISRDNAKNTDYLQMNSLKPEDTAVYYCNADYSIPGYYWPYDYWGQGTQVTVSS | low polyreactivity
21 | QVQLVESGGGLVQAGGSLRLSCAASGFNFLGNAMGWYRQAPGKERELVAAISSGGSTYADSVKGRFTISRDNAKNTVYLQMISLKPEDTAVYYCAVDRAFRAQNYHEYEYWGQGTQVTVSS | low polyreactivity
22 | QVQLVESGGRLVQAGGSLRLSCAASGIIFKGYDMGWYRQEHGKVRELVAGITWIVGSTYADSVKGRFTISRDNAKNTVYLQMNSLKPEDTAVYYCNADPELTGYRFLCAEGVEYWGEGTQVTVSS | low polyreactivity

Row | Sequence | polyreactivity (PSR sort gate)
23 | QVQLVESGGGLVQAGGSLRLSCAATGRIVRGNAMGWYRQAPGKERELVAAISTRGGRTYYADSVKGRFTISRDNAKNTVYLQMTSLKPQDTAVYYCNKGDSASSLDYWGQGTQVTVSS | high polyreactivity
24 | QVQLVESGGGLVQAGGSLRLSCAASGSTFRRNAMGWYRQAPGKERELVAAIDKSGGTTYYADSVKGRFTISRDNAKNTVYLQMNSLKPEDTAVYYCAVRSYLSSRGSHDYWGQGTQVTVSS | low polyreactivity
25 | QVQLVESGGGLVQAGGSLRLSCAASGSTFGWYAMGWYRQAPGKEREFVAAIRGGGSSTYYADSVKGRFTISRDNAKNTVYFQMNSLKPEDTAVYYCAAVTSQLYGNRYYYWGQGTQVTVSS | high polyreactivity
26 | QVQLVESGGGVVQAGGSLRLSCAASGSTFDVYAMGWYRPAPGKERELVAAITSGGTTNYADSVKGRFTISRDNAQNTVYLQLNSLKPEDTAVYYCAADSPWGGGYFVLYNYWGQGTQVTVSS | low polyreactivity
27 | QVQLVESGGGLVQAGGSLRLSCAASGSTFWPYAMGWYRQAPGKERELVAAIRVIGGSKYYADSVKGRFTISRDNAKNTVYLQMNSLKPEDTAVYYCNAYRPGGARFYARYRYDYWGQGTQVTVSS | low polyreactivity
28 | QVQLVESGGGVVQAGGTLRLSCAASGRIFSYYDMGWYRQAPGKERELVAAITWGGGATYYADSVKGRFTISRDNAKNTVYLLMNSLKPEDTAVYYCAADWSPSIWEYDYWGQGTQVTVSS | low polyreactivity
29 | QVQLVESGGGLVQAGGSLRLSCAASGLTFVWYVMGWYRQAPGKERELVAAITSGGTTYYADSVKGRFTISRDNAKNTVYLQMNSLKPEDTAVYYCAAQWAGYGDLPWPYSVIVEFYYWGQGTQVTVSS | low polyreactivity
30 | QVQLVESGGRLVQAGRSLRLSCAASGRTFGRYAMGWYRQAPGKERELVAAITRGGGSTYYADSVKGRFTISRDNAKYTVSLQMNSLKPEDTAVYYCAARNFRSPYGYDYWGQGTQVTVSS | high polyreactivity
31 | QVQLVESGGGLVQAGGSLRLSCAASGITLGYYVMGWYRQAPGKERELVAAISSSGGRTYYADSVKGRFTISRDTAKNTVYLQMNSLKPEDTAVYYCAADLGRGIYDYWGQGTQVTVSS | low polyreactivity
32 | QVQLVESGGGLVQAGGSLSLSSAASGPIFAYNAMGWYRQAPGKERELVAAISYSGGSTYYADSLKGRFTISRDNAKNTVYIQMNSLKPEDTAVYYCNAVYRYLTYRYDYWGQGTQVTVSS | high polyreactivity
33 | QVQLVESGGGLVQAGGSLRLSCAASGSIFNYYTMGWYRQAPGKERELVAVITWSDDSTYYADSVKGRFTISRDNAKNTVYLQMNSLKPEDTAVYYCNARSWGWYRIAYGYWGQGTQVTVSS | low polyreactivity
34 | QVQLVESGGGLVQAGGSLCLSCAASGIFVYNAIGWYRQAPGKEREFVAAINKSGASTFYADSVKGRFTISRDNAKNTVYLQMNRLKPEDTAVYYCRERDYWGQGTQVTVSS | low polyreactivity
35 | QVQLVESGGGLVQAGGSLRLSCAASGFTFFWNAMGWSRQAPGKERELVAVITFRGGDTYYADSVKGRFTISRDNAKNTVYLQMNSLKPEDTAVYYCNADWQSYGYLWHSSLYYYWGQGTQVTVSS | low polyreactivity
36 | QVQLVESGGGLVQEGGSLRLSCAASGSIFVNNGMGWYRQAPGKERELVAAIRLSTGSTYYADSVKGRFTISRDNAKNTVYLQMNSLKPEDTAVYFCNAVRYPRLMYYWGQGTQVTVSS | high polyreactivity
37 | QVQLVESGGGLVQAGGSLRLSCAASGFISPNAMGWYRQAPGKERELVAAISRSGGSTYYADSVKGRFTISRDNAKNTVYLQMNSLKTEDTAVYYCAAGRLYSYRRQYGYWGQGTQVTVSS | high polyreactivity
38 | QVQLVESGGGLVQAGVSLRLSCAASGLTLRPYTMGWYRQAPGKERELVAAITGRGGRTHYADSVKGRFTISRDNAKNTVYLQMNSLKPEDTAVYYCAAAARVYVKVGYNYWGQGTQVTVSS | high polyreactivity
39 | QVQLVESGGGLLQAGGSLRLSCAASGRICRYYAMGGYRQAPGKERELVAGIRTSGGRTYADSVKGRFTISRDYAKNTVYLQMNSLKPEDTAVYYCAAGRRTLSMYYWGQGTQVTVSS | high polyreactivity
40 | QVQLVESGGGLVQAGGSLRLSCAASGRIFIPYAMGWYIQAPGKERELVAAISSSGGSTYYADSVKGRFTISRDTAKNTVYLQMNSLKPEDTEVYFCAARLYWGYAYENYSSLFEYDYWGQGTQVTVSS | low polyreactivity
41 | QVQLVESGGGLVQAGGSLRLRCAASGYTLGPYAMGWYRPAPGKQRELVAAISWGGGRTYYADSVKGRFTISRDNAKNTVYLLMNSLKPEDTAVYYCAAKWSLVRDGPKYDYWGQGTQVTVSS | low polyreactivity
42 | QVQLVESGGGLVQAGGSLRLSCAASGSTFCRNAMGWYRQAPGKEREFVAVISISSGTTYADSVKGRFTISRDNAKNTVYLQMNSMKPEDTAVYYCAAAIGVYYIDYRYLGTVEYWGQGTQGTVSS | low polyreactivity
43 | QVQHVESGGGLVQAGGSLRLSCAASGGTFYGYAMGCYRQAPGKERELVAVITYSGGSTYYADSVKGRFTISRDNAKNTVYLQMYSLKPEDTAVYYCAADVKYGYDWGQGTQVTVSS | high polyreactivity
